The assay deals with human IL-12 receptor on HEK-Blue IL-12 reporter cells (human) (UniProt P42701).

Values joined by “and” are separate entries in the source; they are usually repeats but may differ in a detail not shown here. Identical values can stand only once.

Chain of human IL-12 receptor on HEK-Blue IL-12 reporter cells (human) (Q99665 24-862, chain 2 of 2, other chains not shown): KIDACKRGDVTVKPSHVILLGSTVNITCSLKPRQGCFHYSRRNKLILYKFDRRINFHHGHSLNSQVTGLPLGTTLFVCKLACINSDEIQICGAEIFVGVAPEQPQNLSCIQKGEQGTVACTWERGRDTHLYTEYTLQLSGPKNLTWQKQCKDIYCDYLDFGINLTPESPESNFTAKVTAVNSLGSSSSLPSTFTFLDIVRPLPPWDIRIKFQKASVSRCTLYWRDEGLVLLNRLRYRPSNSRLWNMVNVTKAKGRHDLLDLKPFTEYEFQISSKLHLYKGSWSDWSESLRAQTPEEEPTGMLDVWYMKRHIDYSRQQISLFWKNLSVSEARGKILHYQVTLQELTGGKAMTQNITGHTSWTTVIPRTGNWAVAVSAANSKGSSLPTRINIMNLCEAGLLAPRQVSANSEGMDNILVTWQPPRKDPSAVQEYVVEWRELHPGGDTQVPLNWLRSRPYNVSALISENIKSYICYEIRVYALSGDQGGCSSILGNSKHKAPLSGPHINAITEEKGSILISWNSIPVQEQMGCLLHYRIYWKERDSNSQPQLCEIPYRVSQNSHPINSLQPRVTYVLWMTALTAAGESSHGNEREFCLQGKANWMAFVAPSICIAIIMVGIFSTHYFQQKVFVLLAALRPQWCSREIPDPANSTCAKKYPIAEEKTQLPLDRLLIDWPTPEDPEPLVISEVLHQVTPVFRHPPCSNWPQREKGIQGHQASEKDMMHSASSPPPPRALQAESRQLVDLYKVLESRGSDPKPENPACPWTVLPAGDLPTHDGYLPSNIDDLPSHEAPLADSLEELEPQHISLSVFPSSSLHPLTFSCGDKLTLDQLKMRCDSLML

Take IL12 (ligand): the EC50 (read off the curve) is 0.09 nM and 0.05 nM.

In general, EC50 (read off the curve) refers to the concentration giving half of the maximal effect.

For the origin of these results see patent US20230265146A1.
